Source: patent US20260069707A1, “COMBINATION THERAPY WITH ANTIBODY-DRUG CONJUGATES AND HYALURONIDASES” (HALOZYME, INC., priority 2024, published 2026)
Where “and” joins values, the source holds several entries; their conditions need not be identical. Equal entries are not always repeated.

Assays:
[1] = Linker stability during skin tissue sample preparation (Trodelvy spiked into skin tissue); conditions: 100 μg/mL Trodelvy spiked into skin tissue, protein precipitation, LC-MS/MS
Experimental: Linker stability during skin tissue sample preparation was assessed by spiking 100 μg/mL Trodelvy into skin tissue, followed by protein precipitation and subsequent sample preparation for LC-MS/MS analysis. Free SN-38 was detected at approximately 10% of the total, which may be attributable to residual impurities in Trodelvy and/or linker hydrolysis occurring during the skin tissue processing steps. FIG. 62 provides the ratio of total ADC to total antibody (TADC/TAB) in skin tissue over time. Table 69 depicts the ratio of total ADC to total antibody in skin tissue homogenates, providing an indication of the extent of intact ADC that is remaining in the SC space over time.

[2] = Enhertu analytes (TAB, TADC, free payload) in skin tissue homogenates of injection site; format: in vivo, Yucatan miniature pig (Sus scrofa domestica)
Experimental: Porcine serum was used as surrogate matrix to prepare calibration standards and quality controls for skin sample quantitation. Untreated blank porcine skin was provided for preparation of monitoring quality controls. The porcine skin was homogenized at an approximate ratio of 0.5 mL of buffer for every 100 mg of skin. […] The monitoring controls were analyzed during the method performance evaluation. The following were selected for monitoring in the assay (Table 83).
Porcine serum was used as surrogate matrix to prepare calibration standards and quality controls for the quantitation of skin samples. […] The porcine skin was homogenized at an approximate ratio of 0.5 mL of buffer for every 100 mg of skin. […] These were analyzed during the method performance evaluation.
This sample was divided vertically into two identical pieces. One skin sample was placed into a pre-weighed cryogenic tube and its weight was recorded then stored on dry ice prior to transfer to ≤−70° C. The other skin sample was processed for potential future histological assessment into OCT freezing media and frozen on dry ice.
Animals received two SC doses on their lower abdominal region.
Two cohorts were included in the follow-on study. […] Each animal had two full thickness skin biopsies taken post-mortem using a 12 mm punch. This sample was divided vertically into two identical pieces. One skin sample was placed into a pre-weighed cryogenic tube and its weight was recorded, then stored on dry ice prior to transfer to ≤−70° C. The other skin sample was processed into OCT molds for potential future histological assessment.
Tissue lysates were prepared based upon the weight of the sample at a ratio of 0.2 g/mL homogenization buffer (Tables 81 and 82). The total protein concentration of each homogenate was determined by BCA assay. The concentration of the total ADC (TADC), total antibody (TAB) and free payload (deruxtecan) in each sample was then normalized to the protein concentration and reported in μg analyte per mg total protein.
In this study, six animals were used. […] Two cohorts were included in this study. Cohort 1 was euthanized 24 hours after treatment, while Cohort 2 was euthanized 48 hours after exposure to the two test solutions.

[3] = 24 hours after SC administration
[4] = 48 hours after SC administration
[5] = SC, day 1, individual animal, listed as ADC
[6] = SC, day 2, individual animal, listed as ADC
[7] = SC, day 7, individual animal, listed as ADC
[8] = SC, individual series, listed as ADC

Substance: Sacituzumab govitecan [Trodelvy]
- Free SN-38 detected, % of the total [1]: approximately 10%
- Mean ADC in minipig skin [2, 3]: 24.21
- Mean antibody (Ab) in minipig skin [2, 3]: 27.65
- Mean payload in minipig skin [2, 3]: 0.02
- Mean ADC in minipig skin [2, 4]: 6.92
- Mean antibody (Ab) in minipig skin [2, 4]: 7.97
- Mean payload in minipig skin [2, 4]: 0.00
- Mean skin concentration, Free Payload ([2]; SC, 24 h post-injection): 0.02 μg/mg protein
- Mean skin concentration, Total ADC (TADC) ([2]; SC, 24 h post-injection): 24.21 μg/mg protein
- Mean skin concentration, Total Antibody (TAB) ([2]; SC, 24 h post-injection): 27.65 μg/mg protein
- Mean skin concentration, Free Payload ([2]; SC, 48 h post-injection): 0.0042 μg/mg protein
- Mean skin concentration, Total ADC (TADC) ([2]; SC, 48 h post-injection): 6.92 μg/mg protein
- Mean skin concentration, Total Antibody (TAB) ([2]; SC, 48 h post-injection): 7.97 μg/mg protein
- Mean skin concentration, Free Payload ([2]; SC, 168 h post-injection): 0.0004 μg/mg protein
- Mean skin concentration, Total ADC (TADC) ([2]; SC, 168 h post-injection): 0.57 μg/mg protein
- Mean skin concentration, Total Antibody (TAB) ([2]; SC, 168 h post-injection): 0.73 μg/mg protein
- Concentration of free payload in the skin of minipigs [2, 5]: 0.026 ug/mg protein and 0.020 ug/mg protein and 0.011 ug/mg protein
- Total ADC concentration in the skin of minipigs [2, 5]: 38.48 ug/mg protein and 22.00 ug/mg protein and 12.15 ug/mg protein
- Total antibody concentration in the skin of minipigs [2, 5]: 44.05 ug/mg protein and 22.63 ug/mg protein and 16.28 ug/mg protein
- Concentration of free payload in the skin of minipigs ([2]; SC, day 1, mean): 0.02 ug/mg protein
- Total ADC concentration in the skin of minipigs ([2]; SC, day 1, mean): 24.21 ug/mg protein
- Total antibody concentration in the skin of minipigs ([2]; SC, day 1, mean): 27.65 ug/mg protein
- Concentration of free payload in the skin of minipigs [2, 6]: 0.003 ug/mg protein and 0.005 ug/mg protein (2×)
- Total ADC concentration in the skin of minipigs [2, 6]: 5.97 ug/mg protein and 6.98 ug/mg protein and 7.80 ug/mg protein
- Total antibody concentration in the skin of minipigs [2, 6]: 7.70 ug/mg protein and 8.07 ug/mg protein and 8.14 ug/mg protein
- Concentration of free payload in the skin of minipigs ([2]; SC, day 2, mean): 0.00 ug/mg protein
- Total ADC concentration in the skin of minipigs ([2]; SC, day 2, mean): 6.92 ug/mg protein
- Total antibody concentration in the skin of minipigs ([2]; SC, day 2, mean): 7.97 ug/mg protein
- Concentration of free payload in the skin of minipigs [2, 7]: 0.001 ug/mg protein and 0.000 ug/mg protein (2×)
- Total ADC concentration in the skin of minipigs [2, 7]: 0.69 ug/mg protein and 0.48 ug/mg protein and 0.55 ug/mg protein
- Total antibody concentration in the skin of minipigs [2, 7]: 0.68 ug/mg protein and 0.72 ug/mg protein and 0.79 ug/mg protein
- Concentration of free payload in the skin of minipigs ([2]; SC, day 7, mean): 0.00 ug/mg protein
- Total ADC concentration in the skin of minipigs ([2]; SC, day 7, mean): 0.57 ug/mg protein
- Total antibody concentration in the skin of minipigs ([2]; SC, day 7, mean): 0.73 ug/mg protein
- AUC1-7, free payload in skin [2, 8]: 0.024 ug*day/mL (2×) and 0.021 ug*day/mL
- AUC1-7, total ADC in skin [2, 8]: 38.87 µg·days/mL and 33.14 µg·days/mL and 30.85 µg·days/mL
- AUC1-7, total antibody in skin [2, 8]: 46.85 µg·days/mL and 37.33 µg·days/mL and 34.52 µg·days/mL
- Cmax, free payload in skin [2, 8]: 0.026 µg/mL and 0.020 µg/mL and 0.011 µg/mL
- Cmax, total ADC in skin [2, 8]: 38.48 µg/mL and 22.00 µg/mL and 12.15 µg/mL
- Cmax, total antibody in skin [2, 8]: 44.05 µg/mL and 22.63 µg/mL and 16.28 µg/mL
- AUC1-7, free payload in skin ([2]; SC, mean): 0.02 µg·days/mL
- AUC1-7, total ADC in skin ([2]; SC, mean): 34.29 µg·days/mL
- AUC1-7, total antibody in skin ([2]; SC, mean): 39.57 µg·days/mL
- Cmax, free payload in skin ([2]; SC, mean): 0.02 µg/mL
- Cmax, total ADC in skin ([2]; SC, mean): 24.21 µg/mL
- Cmax, total antibody in skin ([2]; SC, mean): 27.65 µg/mL
- ADC/Ab ratio, mean AUC1-7 ([2]; minipig skin, SC): 87%
